Source: article PMC11208146, “Molecular basis for transposase activation by a dedicated AAA+ ATPase” (Nature, 2024)

Target: IstA transposase, wild type, full length (IS5376, Geobacillus stearothermophilus) (Geobacillus stearothermophilus)
Assay: cryo-EM structure; IstA pre-incubated with strand-transfer-complex DNA (3.3:1), then IstB E167Q (5:1 to IstA), 37 °C; 20 mM HEPES pH 7.5, 150 mM NaCl, 5 mM MgCl2, 1 mM ATP, 1 mM DTT; 3.6 Å

Substance: IstA transposase, wild type, full length (IS5376, Geobacillus stearothermophilus) (enzyme)
- stoichiometry N: 4
